The nature of this series: label from the status in PepcDB records.

As to “MPLNRNHSELRSGKVNLKNGDPFTIALFGVDSDEKRKQQGGGERSDTIMVLSINPKEKKTELVSIPRDTKAEIAGRGTEEKINHAYAYGGPNMAVKTIEKLMNVPIDHYATIDMDGLHDMIDTLGGVDVVSNSTFTMGANHFVKGEKTHVDGDAAMDFIRSRKEDGAGGDFGRQERQQLILEAMADKMTSASSITHFNTLMNQIQKNVKTDLKLGDLNTIRTKYKDANDQVNRHQLEGEGGIQNDGLYYFIPSDASKNENTQLLRDNLNLLEHHHHHH”, the protein production entry is reported as “not failed”.
The entry for “MPLRLPPMLPSVDTSEELDAMVRDEALLRPAAQDLCAHLGLTGARLVRFDDGSLPVYAVGGTLVLKLFPGFEAAEGVREARVLSHLWGQLPVPTPRLHAGEMYKNGWRYVLMSRLPGVSLSTAWSRIPAVEQDRIVDEAAETLAALHSVDWKPLADVVGPADWGTFLRRQRAGVLEHHRAAGLPKPWLDQIPGFLDAVRLPASGERVLLHTEFMREHLTVDPQDGWRLTGLFDFEPAMIGDPAYDFVSVGLFMSRGDPRLLRRFYQAYGRPPHDPYQLLAYTLLHVYSDLAWYLREMPAPPHPRLDALAETWFGTDG” is “failed”.
“MPLVSVVMPVYNSAATLGAAVRSVLTQTHGDLELLVTDDQSSDGSMDLLREFAAQDERVLPRSSPERGGAGRARNLAIERARGDYVAFLDSDDMWLPEKTEKQLAFAAEGTAPLTFTSYFKMDADHDGESTDWVPNGRVIRAREHVDYRAMLVQDHIGALTAMYDRNVLGTRLMPEMRKRQDYALWLSIMRDGADARGLAEPLAVYRAHQAGSLSSNKLSLVEYNWALYREHENLSVPRATRALAGAVWQSLRNSRILEHHHHHH”: the protein production entry was “failed”.
“MPMHFLLFAVVCSVLVSVLLKLAPRHRIDVFQAITWNYATAALLAWLILHPALDTLRSTTAPWVALLLLAVALPSIFLVLARSVAVAGIVRTDVAQRLSLVLSLAAAFTVFGEPVNGWKLAGLALGMVAIACIVRRPRQHVATDPLPSTTGLPWLVGVWMGFALIDLLLKHIAQAGTPSLTSLTLCFALAFLLMLGVQSVRWARGARPSTRSMLAGVLLGALNFGNILCYVRAHQVLPHSPATVFASMNLGVVVLGALVGKLGFAERLGLRGWLGLALAAPAIAAIAWGIRLG”: the protein production entry was “failed”.
Turning to “MPMTLDLQPGQRLARGVARHLRAHGFVSVEEFVPARGLRVDVMGLGPKGEIWVIECKSSRADFQADAKWQGYLEWCDRYFWAVDMEFPAELLPAESGLLIADAYDAEIVRMAPEQKLAPARRKVLIQKFATHAARRLQALRDPEGHGIFE”, the protein production entry is recorded as “not failed”.
Regarding “MPNILYKIDNQYPYFTKNEKKIAQFILNYPHKVVNMTSQEIANQLETSSTSIIRLSKKVTPGGFNELKTRLSKFLPKEVTQYNVELVDNESTISLKNKLHSRSKAALSNANETINVAIIDEICDLIKNSETIFIYGYGASFVVATDLYQKLSRIGLNIQLVHETHIFTTMLATRNSNDCVIFISNNGTQSEMQSIAKVIADYHIPIATISSTSDNPVAKQSNIVLTYGQTDENEMRMGATTSLFAQMFTIDILYYRYIALNYQSSLDFITQSKIALDNYRKHLSNIDFKH”, the protein production result was “failed”.
With “MPNKVKKRHLLDYSIFIPYLILSIVGLIMVYSSTSALQVMKGFSPTSFVINQVAFWVVGLVAMFFIYKMKTSVFQNRSFIMFAIAVITVMVLAVRIPGIGKEINGARGWIEIGGFSMQPAEYLKIMVVWYLSYILARRQKTINGGMDQFKQAAGRPLMLVFVLIALVAIQPDFGNAAILTLITIVMVLASGINYMYTYLVGGLGILGSITAIQLLIMSKGKIFPARYQYIYNRFAVFKNPFLDERNLGHQLANSYYAISNGGWFGKGLGNSVQKKGFLPEAHTDFIFAITLEELGIIGGLAILGLLMFMIARIILVGVRSKKPFNSLMCIGIGTMLLIQVFINVGGITGIIPLTGITFPFLSQGGNSLLIISIAVAFVLNISADETRQKLENEYYLSLEQNQ”, the protein production entry is recorded as “failed”.
“MPNNETEASMRNTLFPTLKWSLLVLMTSLLTACGFHLRGDYDIPQELSRMSLTSYDQYSTFTRMVHRQLRLNKIDLQAPAEDLPNLHLLSESTGERTLSLYQNTRAAEIELTFVASYRVTVPELGSRTFTTSVTRSYLDNPLTALAKSVERDMIEDEMRKLAASQIVRQMARLKADFARKTLDDESIEGKGITDYRVDTQEVANPVSTEGSSELEHHHHHH”: the protein production result is reported as “not failed”.
Under “MPNNHDVNPYGIAFVPAGLPAGSALQAGDVVVSNFNAASNKQGTGTTIVKLVTDGKPVTFFQGQNLGLTTALAVLKSGYVLVGNLPTTNGATITSTGSLLVITPQGKLLSELKDPTLLDGPWDMTVIIDNGQQVTAFVSNVLNGTVARIDLNIGPNGATLLQSSHLIASGYAHRPDPAALVVGPTGLAYDAAHDMLYVASTNDNKVFAIAGAAALAHDNGPGSVIYQDSNHLRGPLALALAPNGDLVTANGDAINPDPNQSSEIVEFTPDGRFVAQMQVDPAPGSAFGLAFGLSSSGQPQFAAVNDSTNTAIVWTLRPVGGN” stands “failed”; under “MPPKTPRKTAATAAAAAAEPPAPPPPPPPEEDPEQDSGPEDLPLVRLEFEETEEPDFTALCQKLKIPDHVRERAWLTWEKVSSVDGVLGGYIQKKKELWGICIFIAAVDLDEMSFTFTELQKNIEISVHKFFNLLKEIDTSTKVDNAMSRLLKKYDVLFALFSKLERTCELIYLTQPSSSISTEINSALVLKVSWITFLLAKGEVLQMEDDLVISFQLMLCVLDYFIKLSPPMLLKEPYKTAVIPINGSPRTPRRGQNRSARIAKQLENDTRIIEVLCKEHECNIDEVKNVYFKNFIPFMNSLGLVTSNGLPEVENLSKRYEEIYLKNKDLDARLFLDHDKTLQTDSIDSFETQRTPRKSNLDEEVNVIPPHTPVRTVMNTIQQLMMILNSASDQPSENLISYFNNCTVNPKESILKRVKDIGYIFKEKFAKAVGQGCVEIGSQRYKLGVRLYYRVMESMLKSEEERLSIQNFSKLLNDNIFHMSLLACALEVVMATYSRSTSQNLDSGTDLSFPWILNVLNLKAFDFYKVIESFIKAEGNLTREMIKHLERCEHRIMESLAWLSDSPLFDLIKQSKDREGPTDHLESACPLNLPLQNNHTAADMYLSPVRSPKKKGSTTRVNSTANAETQATSAFQTQKPLKSTSLSLFYKKVYRLAYLRLNTLCERLLSEHPELEHIIWTLFQHTLQNEYELMRDRHLDQIMMCSMYGICKVKNIDLKFKIIVTAYKDLPHAVQETFKRVLIKEEEYDSIIVFYNSVFMQRLKTNILQYASTRPPTLSPIPHIPRSPYKFPSSPLRIPGGNIYISPLKSPYKISEGLPTPTKMTPRSRILVSIGESFGTSEKFQKINQMVCNSDRVLKRSAEGSNPPKPLKKLRFDIEGSDEADGSKHLPGESKFQQKLAEMTSTRTRMQKQKMNDSMDTSNKEEK”, “failed”.
As for “MPPSTLGLTPPFDATLLTTRPPCSRRHISRSPGARRPSPGLLTCLQPNVCPRARSAFLAISNGSRQQSGPARADAFHPVSISPFYFYSDSYEDVFMPITTKLKAVSLGVSLALAGLLVGCNQNDSDPLVKDDAYYRGQAEAMVAKLTLGEKLDLLSGPGYGSANGAINVKQDVPGVAGYINGVLRSADGIDIPALKLADGPAGVRINANRDGDSASYYATAWPIGSLLASSWDVKLVKAVGEAMGDEVRQYGVDILLAPGMNIQRNPLNGRNFEYYSEDPLLTGKIGAAMVNGVESNGVGTTIKHYFGNNSETNRNQINDIGEPRTFREIYLRGFQIAVDEAQPWAVMTSYNKVNGTYVNERRDAVTDLLRGEWKFDGLVMSDWFAGDVANNAYKQVLAGQDLIEPGNVKEQLQQSIEHGDLDEAKVNEAAIHILTQVMKSPSYNQLAISNSPDLIAHAKLARQAGAESMVLLRNDAAALPLAASSTLASFGINQINTYKGGTGSGDVNAASTTTIAQGLAARFPVNEALQSYYRDFYENNKVYHEGQFGAKGYYTCAEAPISGDLAALIANAATTQQAAVISIGRQAGEGADRSSGKGDYLLGDDERALIDAVSSAFHAQGKKVVVVLNVNGVIDTAQWSDKVDGILLAYMAGQETGHAVADVLSGAVNPSGKLAQSFPHSYASVPSAGTFPGEDTDGDGEPDDLYYNEGIYVGYRYYSTFEQAVSYPFGFGLSYTSFSYTSPAIASNTLEGGSAGNLVLTATITNTGAVAGKEAAQVYVTAPEVKLKKPLIELKAFAKTAQLAPGASEQLSFTIPASILASFDEASNQWIVEPGRYSAYISPSSDVSASTPVSFTVSKEIVVSNTTPGALALPAGVDPASVTTITR”, the protein production entry was “failed”.
